Source: patent US20080045445A1

Target: centromere-binding factor 1 (CBF1) (human) (UniProt Q06330)
Experiment: cell-based or functional assay

centromere-binding factor 1 (CBF1) (human), sequence (Q06330 whole entry): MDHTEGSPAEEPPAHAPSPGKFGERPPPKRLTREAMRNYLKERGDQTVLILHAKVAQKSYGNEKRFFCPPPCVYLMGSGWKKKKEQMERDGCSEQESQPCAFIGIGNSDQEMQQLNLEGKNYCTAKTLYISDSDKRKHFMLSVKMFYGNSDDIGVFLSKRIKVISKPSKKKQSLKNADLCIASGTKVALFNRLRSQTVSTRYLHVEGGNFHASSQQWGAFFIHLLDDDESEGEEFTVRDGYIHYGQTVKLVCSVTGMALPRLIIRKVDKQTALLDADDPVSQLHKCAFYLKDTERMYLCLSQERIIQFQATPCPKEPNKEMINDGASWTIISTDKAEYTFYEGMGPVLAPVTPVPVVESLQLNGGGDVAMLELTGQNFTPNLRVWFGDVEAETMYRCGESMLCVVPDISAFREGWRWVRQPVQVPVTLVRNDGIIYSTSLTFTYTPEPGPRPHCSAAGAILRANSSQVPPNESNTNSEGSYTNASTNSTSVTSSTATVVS

A luciferase activity (CBF1 binding site reporter, wild-type/mutant, relative to beta-galactosidase) of 5 fold was found for “Notch1 intracellular domain (NICD) (from UniProt P46531 1754-2555) (receptor)” in this work.
